Target: T1, human DLL3 (delta-like ligand 3), on the cell surface (human, UniProt Q9NYJ7 27-618)
T1 sequence: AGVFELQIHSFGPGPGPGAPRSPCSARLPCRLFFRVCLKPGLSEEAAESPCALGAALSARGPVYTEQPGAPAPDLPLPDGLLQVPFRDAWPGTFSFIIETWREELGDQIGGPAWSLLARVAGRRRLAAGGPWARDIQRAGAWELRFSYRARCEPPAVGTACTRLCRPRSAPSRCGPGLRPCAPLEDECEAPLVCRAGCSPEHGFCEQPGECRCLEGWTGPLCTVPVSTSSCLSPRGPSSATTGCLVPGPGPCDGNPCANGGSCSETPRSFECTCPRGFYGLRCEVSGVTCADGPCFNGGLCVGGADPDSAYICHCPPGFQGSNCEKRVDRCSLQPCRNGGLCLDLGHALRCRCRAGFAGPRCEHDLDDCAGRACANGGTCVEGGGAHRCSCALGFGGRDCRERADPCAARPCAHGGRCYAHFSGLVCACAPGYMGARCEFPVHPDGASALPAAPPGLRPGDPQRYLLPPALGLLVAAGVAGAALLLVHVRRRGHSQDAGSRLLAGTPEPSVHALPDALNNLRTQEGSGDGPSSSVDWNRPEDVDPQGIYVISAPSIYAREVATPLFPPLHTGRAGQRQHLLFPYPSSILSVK
Experiment: cell-based or functional assay

B1: SC16.34 (antibody, V domains shown)
VH: QIQLVQSGPELKRPGETVKISCKASGYTFTNYGMNWVKQAPGKGLKWMGWINTYTGDPTYADDFKGRFAFSLETSASTAYLQINNLKNEDTATYFCARIGGNSPSDYWGQGTSLTVSS
VL: SIVMTQTPKFLLVSAGDRVTITCKASQSVSNDVAWYQQKPGQSPKLLIYYASNRYSGVPDRFTGSGYGTDFTFTISTVQAEDLAVYFCQQDYSSPWTFGGGTKLEIK
EC50 of killing of OV26 (ovarian NET NTX tumor) cells with anti-mouse IgG Fab-saporin: 5700 nM

B2: SC16.15 (antibody, V domains shown)
VH: QVQLQQSGAELAKPGASVKMSCKASGYTFTRYWIHWIKQRPGQGLEWIGYINPTTVYTEFNQNFKDKATLTADKSSTTASMQLSSLTSEDSAVYYCARGGSNFFDYWGQGTTLTVSS
VL: DIQMTQSPASLAASVGETVAITCRASENIYYNLAWYQQKQGKSPQLLIYTANSLEDGVPSRFSGSGSGTQYSLKINSMQPEDSATYFCKQAYDVPPTFGGGTKLEIK
EC50 of killing of OV26 (ovarian NET NTX tumor) cells with anti-mouse IgG Fab-saporin: 140 nM

Reference: US20200138969A1 (published 2020)
